Read-outs that look alike come from different tables or passages of the source. Primed or numbered codes have the meaning given here. Where no end group is shown, it is not given here. [ ]: non-standard residue; d: D form. DBCO‑MMAE = DBCO-PEG3-glutamic acid-valine-citrulline-p-aminobenzylcarbamate-MMAE (DBCO-PEG3-EVC-PABC-MMAE); Lys(N3)′ = its azide, alkyne or alkene has reacted where a group follows in round brackets
How the values were obtained:
[1] = tested on: NCI-H358; assay: in vitro cytotoxicity (MTT); assay type: cell-based, human
Method: (§1) We utilized two different incubation methods.
(§2) We then incubated the human cell lines with ADC, and equivalent concentrations of MMAE and native Ab for both 48 hours and 72 hours, the results of which can be seen in FIG. 13A-13E. We expected the results to correlate with the GPR87 expression we observed by flow cytometry. For the normal cell lines, this was the case. As detailed in FIG. 14, the line that was most sensitive to the ADC were the NHLFs, followed by the BEAS-2Bs, and the line with the lowest GPR87 expression, the HUVECs, had the highest IC50 after 72 hours. However, both the NSCLC cell lines had relatively high IC50s given the GPR87 expression status of these lines.
(§3) In comparison, NCI-H358 and NCI-H520 see approximately a 4-fold or 2-fold decrease in IC50, respectively, between the two time points. On the other hand, the NCI-H520 line has almost a 10-fold increase in MMAE IC50 at 72 hours compared to 48 hours. The results are likely because the cell lines are different sizes and morphologies and therefore are at different confluencies when plated at the same number of cells per well and are therefore likely to be in different parts of their log growth phase during treatment. For example, the NSCLC lines are typically at very low confluency at a plating density of 5,000 cells per well and may not reach log phase growth until later in the assay. As MMAE affects actively dividing cells, this will affect the results of the assay. While 72 hours was not the optimized end time point for all five cell lines, in order to have a standardized cell plating density, and therefore same ADC:cell ratio, going past 72 hours for some of the cell lines would lead to confluency or death in untreated control cells, which would also confound results. Thus, we incubated the two NSCLC lines for longer periods of time to allow the control cells to become more confluent by the assay endpoint, and to see how this would affect the ADC IC50.
(§4) Standard cytotoxicity assays, like the MTT assays ran here, measure or rather, approximate the cell number at an end point and compare to control untreated cells. Effectively what is measured is a comparison between growth rates. When comparing the efficacy of a drug, particularly a mitotic inhibitor, among different cell lines, division rate differences due to biology, media additives, or seeding density can have a dramatic effect on the IC50, an issue brought up by Hafner et al. They reported with both modeling and in vitro assays how using the IC50 as a metric can actually mask the true mechanism of a drug, for example the microtubule inhibitor paclitaxel. […] GR values indicate whether a drug inhibits growth (0<GR<1), is cytostatic (GR=0) or cytotoxic (GR<0). To calculate this parameter, one needs cell count data for at least two different time points and compares experimental growth rates to the growth rate of control cells. […] Consequently, we reviewed the data at our two time points to perform a similar analysis. We plated at the same seeding density for both the 48 and 72 hour time points. As MTT is an endpoint assay rather than a kinetic assay like MTS, we can use MTT signal as a proxy for cell count. […] Therefore, we excluded this cell line from our analysis. We are technically assessing the effect the ADC or equivalent MMAE has on the growth rate of cells at 60 hours, as we are measuring at t=x±delta t, with x being 60 and delta t being 12 hours. Ideally, we would assess an earlier time point or even multiple time points. […] (FIGS. 19A-19D). Conversely, both NCI-H520 and NCI-H358 are cytotoxic (GR<0) at higher concentrations of ADC at this time point. […] While the GR50 data is still not in agreement with GPR87 expression, it does indicate that this type of analysis at other, earlier, time points is useful in assessing the dynamics of ADC and MMAE cytotoxicity in these cell lines.

[2] = target: GPR87 antigen (Homo sapiens, UniProt Q9BY21); assay: custom ELISA binding analysis of αGPR87 antibody, Ab-CCK and ADC
GPR87 antigen, sequence (Q9BY21 whole entry): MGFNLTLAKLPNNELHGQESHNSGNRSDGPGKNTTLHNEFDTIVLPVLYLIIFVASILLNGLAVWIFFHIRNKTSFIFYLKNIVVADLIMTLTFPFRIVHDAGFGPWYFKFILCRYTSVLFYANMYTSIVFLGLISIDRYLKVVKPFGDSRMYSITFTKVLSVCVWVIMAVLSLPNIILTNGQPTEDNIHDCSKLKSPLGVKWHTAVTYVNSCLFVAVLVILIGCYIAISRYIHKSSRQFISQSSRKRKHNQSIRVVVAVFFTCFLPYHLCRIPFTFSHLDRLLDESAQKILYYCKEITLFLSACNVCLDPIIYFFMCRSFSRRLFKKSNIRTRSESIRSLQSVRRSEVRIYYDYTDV
Method: With the CCE-MMAE peptide successfully synthesized and previous optimization of the antibody loading process with the AFC, it was facile to translate the method to formulating the ADC. Using a similar custom ELISA as before, but with a secondary antibody recognizing mouse antibody, it was contemplated whether the loading of CCE-MMAE, the 50° C. incubation, or even the expression of the peptide tails affected the binding affinity of the antibody. (FIG. 8C) What was found was initially surprising, which was that by adding the peptide tails onto the antibody, the Kd was affected. […] However, if it was taken into consideration the SEC data showing the larger aggregates formed by these antibodies, the results are more consistent. The original analysis was done by using the wt/vol concentration of the antibodies. However, if there are larger aggregates forming such as hexamers of Ab-CCK or hexamers, trimers, and monomers of the ADC, then equivalent wt/vol concentrations will vary by molarity. If it was assumed the Ab-CCK exists as a hexamer and therefore at the same wt/vol concentration as the native Ab is at one sixth the molar concentration, the binding data can be reanalyzed with these adjusted molarities. Similarly, it can be assumed the ADC is forming on average trimers and adjust the molar concentration by one third accordingly. The resulting curves are similar, with the Ab, Ab-CCK, and ADC having Kds of approximately 0.43, 0.46, and 0.41 nM, respectively.

[3] = tested on: NCI-H520; assay: in vitro cytotoxicity (MTT); assay type: cell-based, human
Method: as §1, §2, §3, §4

[4] = tested on: BEAS-2B; assay: in vitro cytotoxicity (MTT); assay type: cell-based, human
Method: as §1, §2, §4

[5] = tested on: NHLF; assay: in vitro cytotoxicity (MTT); assay type: cell-based, human
Method: as §1, §2, §4

[6] = tested on: NCI-H358, NCI-H520, NHLF, BEAS-2B, HUVEC; assay: in vitro cytotoxicity, comparison of ADC and MMAE over the five cell lines; assay type: cell-based, human; details: 48 and 72 hours
Method: as §2
We investigated analyzing other parameters, such as the area under the curve (AUC) for the five cell lines as we noted that the hill slope was variable between different cell lines and between ADC and MMAE treatments. By assessing the AUC, we could interpret the total cytotoxicity of the treatment over all concentrations tested. Rather than the large (>100) fold differences in ADC and MMAE IC50s observed in FIG. 14, FIG. 16 indicates the difference in toxicity between the two are less pronounced, on the order of 1-3-fold difference. However, comparing the toxicity of the ADC across the cell lines, the relationships, or lack thereof, between toxicity and GPR87 expression remain largely the same.

[7] = tested on: NIH-3T3; assay: in vitro cytotoxicity, negative control line; details: NIH-3T3, 10 μg/ml ADC, 72 hours
Method: We incubated NIH-3T3s with up to 10 μg/ml of ADC (67 nM, equivalent to 96 ng/ml of MMAE) along with the native antibody and MMAE alone at equivalent concentrations.

[8] = Ab-CCK assumed hexamer, ADC assumed trimer (from SEC), read-out: Kd, reanalyzed with adjusted molarities
[9] = ELISA, analysed by wt/vol concentration, read-out: Kd

## CCE-MMAE: CCE peptide (SEQ ID NO: 3) conjugated at azido lysine with DBCO-MMAE (MKLEEIVSELEEIVSELEEIV[Lys(N3)′](DBCO‑MMAE)ELEEIVYEVGER)
[1]; NCI-H358, 72 hours, concentrations equivalent to ADC
  toxicity: Toxicity was only observed at the highest concentration

B1: Ab: native murine αhGPR87 IgG1 antibody (331CL), plasmids from Creative Biolabs (antibody)
heavy: EVQLQQSGPDLVKPGASMKISCKASGYSFTDYTMHWVKQSHGKNFEWIGLINPYNDGTTYNQKFKGKATLTVDKSSSTAYMELLSLTSEDSAVYYCASLDYWGQGTSVTVSSAKTTPPSVYPLAPGSAAQTNSMVTLGCLVKGYFPEPVTVTWNSGSLSSGVHTFPAVLQSDLYTLSSSVTVPSSTWPSETVTCNVAHPASSTKVDKKIVPRDCGCKPCICTVPEVSSVFIFPPKPKDVLTITLTPKVTCVVVDISKDDPEVQFSWFVDDVEVHTAQTQPREEQFNSTFRSVSELPIMHQDWLNGKEFKCRVNSAAFPAPIEKTISKTKGRPKAPQVYTIPPPKEQMAKDKVSLTCMITDFFPEDITVEWQWNGQPAENYKNTQPIMDTDGSYFVYSKLNVQKSNWEAGNTFTCSVLHEGLHNHHTEKSLSHSPGK
light: DVVMTQTPLSLPVSLGDQASISCRSSQSLVHSSGNTYLHWYLQKPGQSPKLLIYKVSNRFSGVPDRFSGSGSGTDFTLKISRVEAEDLGVYFCSQSTHVPYTFGGGTKLEIKRADAAPTVSIFPPSSEQLTSGGASVVCFLNNFYPKDINVKWKIDGSERQNGVLNSWTDQDSKDSTYSMSSTLTLTKDEYERHNSYTCEATHKTSTSPIVKSFNRNEC
[2]; [8]
  Kd: ~0.43 nM
[2]; [9]
  Kd: 0.4 nM

B2: Ab-CCK: αGPR87 antibody 331CL with CCK peptide on the heavy chain C termini via a pentaglycine linker (antibody)
heavy: EVQLQQSGPDLVKPGASMKISCKASGYSFTDYTMHWVKQSHGKNFEWIGLINPYNDGTTYNQKFKGKATLTVDKSSSTAYMELLSLTSEDSAVYYCASLDYWGQGTSVTVSSAKTTPPSVYPLAPGSAAQTNSMVTLGCLVKGYFPEPVTVTWNSGSLSSGVHTFPAVLQSDLYTLSSSVTVPSSTWPSETVTCNVAHPASSTKVDKKIVPRDCGCKPCICTVPEVSSVFIFPPKPKDVLTITLTPKVTCVVVDISKDDPEVQFSWFVDDVEVHTAQTQPREEQFNSTFRSVSELPIMHQDWLNGKEFKCRVNSAAFPAPIEKTISKTKGRPKAPQVYTIPPPKEQMAKDKVSLTCMITDFFPEDITVEWQWNGQPAENYKNTQPIMDTDGSYFVYSKLNVQKSNWEAGNTFTCSVLHEGLHNHHTEKSLSHSPGKGGGGGMKLKKIKSVLKKIKSVLKKIKSVLKKIKSVVGER
light: DVVMTQTPLSLPVSLGDQASISCRSSQSLVHSSGNTYLHWYLQKPGQSPKLLIYKVSNRFSGVPDRFSGSGSGTDFTLKISRVEAEDLGVYFCSQSTHVPYTFGGGTKLEIKRADAAPTVSIFPPSSEQLTSGGASVVCFLNNFYPKDINVKWKIDGSERQNGVLNSWTDQDSKDSTYSMSSTLTLTKDEYERHNSYTCEATHKTSTSPIVKSFNRNEC
[2]; [8]
  Kd: ~0.46 nM
[2]; [9]
  Kd: 2.8 nM

B3: ADC (conjugate)
heavy: EVQLQQSGPDLVKPGASMKISCKASGYSFTDYTMHWVKQSHGKNFEWIGLINPYNDGTTYNQKFKGKATLTVDKSSSTAYMELLSLTSEDSAVYYCASLDYWGQGTSVTVSSAKTTPPSVYPLAPGSAAQTNSMVTLGCLVKGYFPEPVTVTWNSGSLSSGVHTFPAVLQSDLYTLSSSVTVPSSTWPSETVTCNVAHPASSTKVDKKIVPRDCGCKPCICTVPEVSSVFIFPPKPKDVLTITLTPKVTCVVVDISKDDPEVQFSWFVDDVEVHTAQTQPREEQFNSTFRSVSELPIMHQDWLNGKEFKCRVNSAAFPAPIEKTISKTKGRPKAPQVYTIPPPKEQMAKDKVSLTCMITDFFPEDITVEWQWNGQPAENYKNTQPIMDTDGSYFVYSKLNVQKSNWEAGNTFTCSVLHEGLHNHHTEKSLSHSPGKGGGGGMKLKKIKSVLKKIKSVLKKIKSVLKKIKSVVGER
light: DVVMTQTPLSLPVSLGDQASISCRSSQSLVHSSGNTYLHWYLQKPGQSPKLLIYKVSNRFSGVPDRFSGSGSGTDFTLKISRVEAEDLGVYFCSQSTHVPYTFGGGTKLEIKRADAAPTVSIFPPSSEQLTSGGASVVCFLNNFYPKDINVKWKIDGSERQNGVLNSWTDQDSKDSTYSMSSTLTLTKDEYERHNSYTCEATHKTSTSPIVKSFNRNEC
peptide: MKLEEIVSELEEIVSELEEIVKELEEIVYEVGER
[2]; [8]
  Kd: ~0.41 nM
[2]; [9]
  Kd: ~1.3 nM
[1]; NCI-H358
  decrease in IC50 between 48 and 72 hours: ~4 fold
  toxicity, 24 hours treatment + 48 hours fresh media vs 72 hours treatment: no significant difference between the two treatment groups
[1]; NCI-H358, higher concentrations of ADC, 60 hours
  normalized growth rate inhibition (GR): < 0
[1]; NCI-H358, incubation 48, 72 and 120 hours, first value of 'from ... to'
  IC50, start of time course: 9.11 ng/ml of MMAE equivalent ADC
[1]; NCI-H358, longer incubation (up to 120 hours), last value of 'from ... to'
  IC50, end of time course: 8.69 ng/ml of MMAE equivalent ADC
[3]; NCI-H520
  decrease in IC50 between 48 and 72 hours: ~2 fold
[3]; NCI-H520, ADC prepared at 50° C.
  IC50: 3 nM
[3]; NCI-H520, ADC prepared at RT
  IC50: 4.9 nM
[3]; NCI-H520, higher concentrations of ADC, 60 hours
  normalized growth rate inhibition (GR): < 0
[3]; NCI-H520, incubation 48, 72 and 168 hours, first value of 'from ... to'
  IC50, start of time course: 12.87 ng/ml of MMAE equivalent ADC
[3]; NCI-H520, longer incubation (up to 168 hours), last value of 'from ... to'
  IC50, end of time course: 5.24 ng/ml of MMAE equivalent ADC
[4]; ADC prepared at 50° C.
  IC50: 6.8 nM
[4]; ADC prepared at RT
  IC50: 5.3 nM
[4]; at 60 hours
  GR-based effect: cytotoxic
[5]
  GR50: do not reach that value
  difference between 48 and 72 hour IC50s: almost identical
[5]; ADC prepared at 50° C.
  IC50: 0.8 nM
[5]; ADC prepared at RT
  IC50: 0.8 nM
[6]; FIG. 14
  fold differences in ADC and MMAE IC50s: > 100 fold
[6]; FIG. 16
  fold difference in toxicity (AUC) between ADC and MMAE: 1-3 fold
[7]
  viability: ~76%
